Experimental data published in PMC9408933, “Discovery of the Key Mutation Site Influencing the Thermostability of Thermomyces lanuginosus Lipase by Rosetta Design Programs” (International Journal of Molecular Sciences, 2022).

System: T1, CCCCCCCCCCCCCCCC(=O)Oc1ccc([N+](=O)[O-])cc1
T1 construct: N-terminal His-tag, secreted from Pichia pastoris GS115 (pPIC9K), Ni-NTA purified
Test: p-nitrophenol release, Michaelis-Menten fit
Assay type: biochemical, Thermomyces lanuginosus
Conditions: 37 °C, pH 9.0, 100 mM Tris-HCl, pNPP 0.08-10.00 mM, apparent Km
Description: p-nitrophenol release, Michaelis-Menten fit on TLL (Thermomyces lanuginosus lipase)

| Substance | Km [µM] | Vmax [µmol/min/mg] | kcat [s⁻¹] | kcat/Km [M⁻¹ s⁻¹] |
| --- | --- | --- | --- | --- |
| TLL (Thermomyces lanuginosus lipase) (Thermomyces lanuginosus; R231H) | 180 ± 20 | 330 | 790 ± 22.7 | 4.39e+06 ± 126000 |
| TLL (Thermomyces lanuginosus lipase) (Thermomyces lanuginosus; R231K) | 170 ± 20 | 345 | 1100 ± 14 | 6.5e+06 ± 82500 |
| TLL (Thermomyces lanuginosus lipase) (Thermomyces lanuginosus; R231T) | 190 ± 30 | 344 | 1090 ± 27.6 | 5.75e+06 ± 146000 |
| TLL (Thermomyces lanuginosus lipase) (Thermomyces lanuginosus; R231E) | 140 ± 20 | 301 | 1230 ± 27.6 | 8.79e+06 ± 197000 |
| TLL (Thermomyces lanuginosus lipase) (Thermomyces lanuginosus; R231I) | 180 ± 20 | 303 | 767 ± 22.8 | 4.26e+06 ± 127000 |
| TLL (Thermomyces lanuginosus lipase) (Thermomyces lanuginosus; R231P) | 160 ± 20 | 339 | 1387 ± 12.8 | 8.669e+06 ± 80300 |
| TLL (Thermomyces lanuginosus lipase) (Thermomyces lanuginosus; R231V) | 140 ± 20 | 260 | 713 ± 8.11 | 5.09e+06 ± 57900 |
| TLL (Thermomyces lanuginosus lipase) (Thermomyces lanuginosus; R231Q) | 230 ± 30 | 354 | 788 ± 7.98 | 3.42e+06 ± 34700 |
| TLL (Thermomyces lanuginosus lipase) (Thermomyces lanuginosus; R231M) | 190 ± 30 | 319 | 765 ± 17.6 | 4.02e+06 ± 92400 |
| TLL (Thermomyces lanuginosus lipase) (Thermomyces lanuginosus; R231A) | 230 ± 30 | 384 | 1220 ± 43 | 5.31e+06 ± 187000 |
